Reference: publication PMC8571087, “Sphingadienine-1-phosphate levels are regulated by a novel glycoside hydrolase family 1 glucocerebrosidase widely distributed in seed plants” (The Journal of Biological Chemistry, 2021)

Assays:
purified protein = substrate: O=[N+]([O-])c1ccc(O[C@@H]2O[C@H](CO)[C@@H](O)[C@H](O)[C@H]2O)cc1; assay: purified protein; details: Buffer J pH 5.5 (sodium acetate, sodium cholate, 0.1% Tween 20), 37 °C, 15 min
[1] = substrate: CCCCCCCCCCCCC/C=C/[C@@H](O)[C@H](CO[C@@H]1O[C@H](CO)[C@@H](O)[C@H](O)[C@H]1O)NC(=O)CCCCCNc1ccc([N+](=O)[O-])c2nonc12; assay: hydrolysis, Hanes-Woolf plot; format: biochemical, Oryza sativa; details: Buffer J pH 5.5 (sodium acetate, sodium cholate, 0.1% Tween 20), 37 °C, 15 min, labelled compound (NBD)
[2] = substrate: CCCCCCCCC/C=C/CC/C=C/[C@@H](O)[C@H](CO[C@@H]1O[C@H](CO)[C@@H](O)[C@H](O)[C@H]1O)NC(=O)[C@H](O)CCCCCCCCCCCCCC; assay: ceramide release by LC-ESI-MS/MS, Hanes-Woolf plot; format: biochemical, Oryza sativa; details: Buffer J pH 5.5 (sodium acetate, sodium cholate, 0.1% Tween 20), 37 °C, 15 min
From the text: (§1) ceramide release by LC-ESI-MS/MS, Hanes-Woolf plot on Os3BGlu6 (GCase purified from rice leaves)

[3] = substrate: CCCCCCCCC/C=C\CC/C=C/[C@@H](O)[C@H](CO[C@@H]1O[C@H](CO)[C@@H](O)[C@H](O)[C@H]1O)NC(=O)[C@H](O)CCCCCCCCCCCCCC; assay: ceramide release by LC-ESI-MS/MS, Hanes-Woolf plot; format: biochemical, Oryza sativa; details: Buffer J pH 5.5 (sodium acetate, sodium cholate, 0.1% Tween 20), 37 °C, 15 min
From the text: as §1

[4] = substrate: CCCCCCCCCCCCC/C=C/[C@@H](O)[C@H](CO[C@@H]1O[C@H](CO)[C@@H](O)[C@H](O)[C@H]1O)NC(=O)CCCCCCCCCCC; assay: ceramide release by HPLC, Hanes-Woolf plot; format: biochemical, Oryza sativa; details: Buffer J pH 5.5 (sodium acetate, sodium cholate, 0.1% Tween 20), 37 °C, 15 min
From the text: (§2) ceramide release by HPLC, Hanes-Woolf plot on Os3BGlu6 (GCase purified from rice leaves)

[5] = substrate: CCCCCCCCCCCC/C=C/[C@@H](O)C(=O)N[C@@H](CO[C@@H]1O[C@H](CO)[C@@H](O)[C@H](O)[C@H]1O)[C@H](O)/C=C/CC/C=C(\C)CCCCCCCCC; assay: ceramide release by HPLC, Hanes-Woolf plot; format: biochemical, Oryza sativa; details: Buffer J pH 5.5 (sodium acetate, sodium cholate, 0.1% Tween 20), 37 °C, 15 min
From the text: as §2

[6] = substrate: CCCCCCCCCCCCC/C=C/[C@@H](O)[C@H](CO[C@@H]1O[C@H](CO)[C@@H](O)[C@H](O)[C@H]1O)NC(=O)CCCCCCC; assay: ceramide release by HPLC, Hanes-Woolf plot; format: biochemical, Oryza sativa; details: Buffer J pH 5.5 (sodium acetate, sodium cholate, 0.1% Tween 20), 37 °C, 15 min
From the text: as §2

B1: Os3BGlu6 (GCase purified from rice leaves) (Oryza sativa Japonica Group) (protein)
chain: QQSGGGLTRGSFPEGFVFGTASAAYQYEGAVKEDGRGQTIWDTFAHTFGKITDFSNADVAVDQYHRFEEDIQLMADMGMDAYRFSIAWSRIYPNGVGQVNQAGIDHYNKLIDALLAKGIQPYVTLYHWDLPQALEDKYKGWLDRQIVDDFAAYAETCFREFGDRVKHWITLNEPHTVAIQGYDAGLQAPGRCSVLLHLYCKAGNSGTEPYVVAHHFILAHAAAASIYRTKYKATQNGQLGIAFDVMWFEPMSNTTIDIEAAKRAQEFQLGWFADPFFFGDYPATMRARVGERLPRFTADEAAVVKGALDFVGINHYTTYYTRHNNTNIIGTLLNNTLADTGTVSLPFKNGKPIGDRANSIWLYIVPRGMRSLMNYVKERYNSPPVYITENGMDDSNNPFISIKDALKDSKRIKYHNDYLTNLAASIKEDGCDVRGYFAWSLLDNWEWAAGYSSRFGLYFVDYKDNLKRYPKNSVQWFKALLKT
Km (purified protein): 3825.3 ± 201.2 µM
kcat (purified protein): 285 s⁻¹
kcat/Km (purified protein): 75000 M⁻¹ s⁻¹
Km [1]: 57.1 ± 7.9 µM
kcat [1]: 112 ± 11.8 s⁻¹
kcat/Km [1]: 1.97e+06 ± 120000 M⁻¹ s⁻¹
Km [2]: 50.0 ± 2.4 µM
kcat [2]: 146 ± 4.7 s⁻¹
kcat/Km [2]: 2.92e+06 ± 50000 M⁻¹ s⁻¹
Km [3]: 19.8 ± 0.8 µM
kcat [3]: 116 ± 2.9 s⁻¹
kcat/Km [3]: 5.85e+06 ± 190000 M⁻¹ s⁻¹
Km [4]: 46.1 ± 5.1 µM
kcat [4]: 121 ± 4.4 s⁻¹
kcat/Km [4]: 2.64e+06 ± 190000 M⁻¹ s⁻¹
Km [5]: 41.1 ± 4.3 µM
kcat [5]: 151 ± 9.1 s⁻¹
kcat/Km [5]: 3.7e+06 ± 280000 M⁻¹ s⁻¹
Km [6]: 47.5 ± 3.8 µM
kcat [6]: 156 ± 8.6 s⁻¹
kcat/Km [6]: 3.29e+06 ± 150000 M⁻¹ s⁻¹
